Data taken from the supplement of paper PMC10567573.

B1: GFOD1 (parent)
chain: SDDFCTFQMVLEGGVCCTVTLNFN
B2: MYBL2 (parent)
chain: IAKHLKGRLGKQCRERWHNHLNPE

Variants of: B1
Assay: protein stability index of a GFP-peptide fusion (GPS, HEK-293T) (PSI 1-6); higher = more stable
Settings: c terminus: a fixed tail appended
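Further: lentivirally expressed fusions sorted by FACS into six bins by GFP to DsRed ratio, PSI derived from sequencing read proportions per bin multiplied by bin number.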

Variant | protein stability index
SLDFCTFQMVLEGGVCCTVTLNFN | 3.05
SGDFCTFQMVLEGGVCCTVTLNFN | 2.84
SYDFCTFQMVLEGGVCCTVTLNFN | 3.72
STDFCTFQMVLEGGVCCTVTLNFN | 3.29
SSDFCTFQMVLEGGVCCTVTLNFN | 3.14
SNDFCTFQMVLEGGVCCTVTLNFN | 3.57
SEDFCTFQMVLEGGVCCTVTLNFN | 3.11
SHDFCTFQMVLEGGVCCTVTLNFN | 2.72
SMDFCTFQMVLEGGVCCTVTLNFN | 1.27
SCDFCTFQMVLEGGVCCTVTLNFN | 3.12
SQDFCTFQMVLEGGVCCTVTLNFN | 3.58

Variants of: B2
Assay: as above
Settings: c terminus: a fixed tail appended

Variant | protein stability index
IAKHLKGRLGKQCRERWHNWLNPE | 2.57
IAKHLKGRLGKQCRERWHNPLNPE | 2.41
IAKHLKGRLGKQCRERWHNQLNPE | 1.84
IAKHLKGRLGKQCRERWHNSLNPE | 1.54
IAKHLKGRLGKQCRERWHNRLNPE | 1.21
IAKHLKGRLGKQCRERWHNYLNPE | 1.62
IAKHLKGRLGKQCRERWHNTLNPE | 2.09
IAKHLKGRLGKQCRERWHNVLNPE | 2.58
IAKHLKGRLGKQCRERWHNHLNHE | 2.1
IAKHLKGRLGKQCRERWHNHLNTE | 2.19
IAKHLKGRLGKQCRERWHNHLNKE | 2.26
IAKHLKGRLGKQCRERWHNHLNEE | 1.85
IAKHLKGRLGKQCRERWHNHLNNE | 1.93
IAKHLKGRLGKQCRERWHNHLNME | 2.21
IAKHLKGRLGKQCRERWHNHLNQE | 1.79
IAKHLKGRLGKQCRERWHNHLNGE | 2.03
IAKHLKGRLGKQCRERWHNHLNDE | 1.89
IAKHLKGRLGKQCRERWHNHLNIE | 2.14
IAKHLKGRLGKQCRERWHNHLNRE | 2.11
IAKHLKGRLGKQCRERWHNHLNFE | 3.01
IAKHLKGRLGKQCRERWHNHLNYE | 1.33

Variant | protein stability index
IAKHLKGRLGKQCRERWHNHLNAE | 2.62
IAKHLKGRLGKQCRERWHNHLNSE | 1.49
IAKHLKGRLGKQCRERWHNHLNWE | 1.98
IAKHLKGRLGKQCRERWHNHLNCE | 2.4
IAKHLKGRLGKQCRERWHNHLNVE | 2.46
IAKHLKGRLGKQCRERWHNHLNLE | 1.66
IAKHLKGRLGKQCRERWHNHLEPE | 2.42
IAKHLKGRLGKQCRERWHNHLWPE | 2.6
IAKHLKGRLGKQCRERWHNHLMPE | 2.58
IAKHLKGRLGKQCRERWHNHLTPE | 2.53
IAKHLKGRLGKQCRERWHNHLIPE | 2.09
IAKHLKGRLGKQCRERWHNHLQPE | 2.05
IAKHLKGRLGKQCRERWHNHLCPE | 1.92
IAKHLKGRLGKQCRERWHNHLGPE | 1.43
IAKHLKGRLGKQCRERWHNHLVPE | 2.44
IAKHLKGRLGKQCRERWHNHLPPE | 1.35
IAKHLKGRLGKQCRERWHNHLFPE | 2.7
IAKHLKGRLGKQCRERWHNHLDPE | 2.06
IAKHLKGRLGKQCRERWHNHLKPE | 1.51
IAKHLKGRLGKQCRERWHNHLYPE | 2.45
IAKHLKGRLGKQCRERWHNHLHPE | 1.91

Variant | protein stability index
IAKHLKGRLGKQCRERWHNHLSPE | 2.29
IAKHLKGRLGKQCRERWHNHLRPE | 1.64
IAKHLKGRLGKQCRERWHNHLLPE | 2.24
IAKHLKGRLGKQCRERWHNHLAPE | 1.73
IAKHLKGRLGKQCRERWHNHLNPQ | 1.4
IAKHLKGRLGKQCRERWHNHLNPF | 2.82
IAKHLKGRLGKQCRERWHNHLNPL | 2.54
IAKHLKGRLGKQCRERWHNHLNPD | 2.34
IAKHLKGRLGKQCRERWHNHLNPH | 2
IAKHLKGRLGKQCRERWHNHLNPI | 2.27
IAKHLKGRLGKQCRERWHNHLNPV | 3.05
IAKHLKGRLGKQCRERWHNHLNPA | 2.08
IAKHLKGRLGKQCRERWHNHLNPT | 2.21
IAKHLKGRLGKQCRERWHNHLNPC | 1.41
IAKHLKGRLGKQCRERWHNHLNPN | 2.35
IAKHLKGRLGKQCRERWHNHLNPK | 2.68
IAKHLKGRLGKQCRERWHNHLNPM | 3.97
IAKHLKGRLGKQCRERWHNHLNPP | 2.12
IAKHLKGRLGKQCRERWHNHLNPS | 1.81
IAKHLKGRLGKQCRERWHNHLNPG | 3
IAKHLKGRLGKQCRERWHNHLNPW | 1.79

Variant | protein stability index
IAKHLKGRLGKQCRERWHNHLNPR | 2.75
IAKHLKGRLGKQCRERWHNHRNPE | 2.34
IAKHLKGRLGKQCRERWHNHDNPE | 2.17
IAKHLKGRLGKQCRERWHNHWNPE | 1.79
IAKHLKGRLGKQCRERWHNHQNPE | 2.47
IAKHLKGRLGKQCRERWHNHYNPE | 1.85
IAKHLKGRLGKQCRERWHNHGNPE | 1.98
IAKHLKGRLGKQCRERWHNHINPE | 2.29
IAKHLKGRLGKQCRERWHNHTNPE | 2.3
IAKHLKGRLGKQCRERWHNHANPE | 2.16
IAKHLKGRLGKQCRERWHNHMNPE | 1.47
IAKHLKGRLGKQCRERWHNHHNPE | 1.75
IAKHLKGRLGKQCRERWHNHPNPE | 2.97
IAKHLKGRLGKQCRERWHNHCNPE | 1.69
IAKHLKGRLGKQCRERWHNHNNPE | 2.22
IAKHLKGRLGKQCRERWHNHSNPE | 1.97
IAKHLKGRLGKQCRERWHNHENPE | 2.88
IAKHLKGRLGKQCRERWHNHKNPE | 2.79
IAKHLKGRLGKQCRERWHNHVNPE | 2.23
IAKHLKGRLGKQCRERWHNHFNPE | 1.91
